Positions of bridges follow the written chain, without caps; N, C: chain ends. Non-standard residues stand in square brackets, D forms with d. No end group written: not given here. *: point of attachment. Acetyl(2-(4-imidazolyl)) = O=C(Cc1c[nH]cn1)*; Aib = CC(C)(N)C(=O)O

The subject of experiment [1] is relapsing/remitting multiple sclerosis mouse model. The settings on record: Mol Neurobiol. 2018, cited from earlier work.
Experiment [2] concerns pyridoxine-induced peripheral neuropathy in non-diabetic rodents. The conditions noted are these: Exp Neurol. 2007; cited from earlier work.
The next experiment has as its target human GLP-1 receptor (human, UniProt P43220 24-463). The experiment can be described thus: cell-based or functional assay.
In the next experiment the target is human GCG receptor (human, UniProt P47871 26-477). Description: cell-based or functional assay.
For another experiment, the target named is T1, human GIP receptor (human, UniProt P48546 22-466).
T1 sequence (looked up): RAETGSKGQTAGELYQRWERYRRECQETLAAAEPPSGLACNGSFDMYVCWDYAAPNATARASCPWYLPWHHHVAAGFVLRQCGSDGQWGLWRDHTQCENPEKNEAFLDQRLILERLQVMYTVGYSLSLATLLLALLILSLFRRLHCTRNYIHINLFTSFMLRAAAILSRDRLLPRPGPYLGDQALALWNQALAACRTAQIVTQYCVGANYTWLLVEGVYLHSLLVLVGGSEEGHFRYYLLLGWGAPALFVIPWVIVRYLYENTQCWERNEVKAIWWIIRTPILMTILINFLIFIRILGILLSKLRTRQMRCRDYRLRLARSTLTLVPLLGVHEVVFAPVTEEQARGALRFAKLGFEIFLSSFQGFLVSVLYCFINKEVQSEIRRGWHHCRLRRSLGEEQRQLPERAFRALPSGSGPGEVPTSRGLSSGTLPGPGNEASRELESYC
The experiment can be described thus: cell-based or functional assay.

Chain of human GCG receptor (P47871 26-477): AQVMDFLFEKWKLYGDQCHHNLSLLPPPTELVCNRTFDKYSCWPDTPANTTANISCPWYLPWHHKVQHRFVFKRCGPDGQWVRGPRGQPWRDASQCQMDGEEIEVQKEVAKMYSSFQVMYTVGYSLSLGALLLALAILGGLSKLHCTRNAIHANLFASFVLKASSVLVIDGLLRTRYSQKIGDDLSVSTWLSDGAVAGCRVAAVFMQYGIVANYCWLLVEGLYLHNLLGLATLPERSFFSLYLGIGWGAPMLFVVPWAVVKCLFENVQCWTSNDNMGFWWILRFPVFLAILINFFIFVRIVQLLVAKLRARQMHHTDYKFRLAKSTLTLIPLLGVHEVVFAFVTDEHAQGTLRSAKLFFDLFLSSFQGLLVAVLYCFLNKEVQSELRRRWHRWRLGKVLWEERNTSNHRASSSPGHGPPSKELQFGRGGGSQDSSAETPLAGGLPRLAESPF

With exendin-4, the “levels of inflammatory cytokines that increase during demyelination” value in experiment [1] is given as “reduced the levels of inflammatory cytokines”. Also, the “symptoms of multiple sclerosis” value in experiment [1] (effect similar to that of fingolimod) was “symptom alleviating effect”. Besides, the “protection against pyridoxine-induced functional and morphological defects” value in experiment [2] is recorded as “partially protected”.
In the case of “glucagon-like peptide-1 (HAEGTFTSDVSSYLEGQAAKEFIAWLVKGR; ends and bridges not checked; UniProt P01275 98-127, looked up) [GLP-1, a typical incretin hormone]”, the “protection against pyridoxine-induced functional and morphological defects” value in experiment [2] is reported as “partially protected”.
Regarding H[Aib]QGTFTSDVSSYLLGQAAKQFIAWLVKGGGPSSGAPPPSC (not fully specified) [triple agonist of SEQ ID NO: 3], in the experiment with human GLP-1 receptor, the “In vitro activity (%) compared with native peptide: vs GLP-1” value (from here on “In vitro activity (%) … vs GLP-1”) amounted to 1.8%. In the experiment with human GCG receptor, the “In vitro activity (%) compared with native peptide: vs Glucagon” value (shortened to “In vitro activity (%) … vs Glucagon”) was below 0.1%. For the same molecule, in the experiment with human GIP receptor, the “In vitro activity (%) compared with native peptide: vs GIP” value (shortened to “In vitro activity (%) … vs GIP”) was below 0.1%.
On to H[Aib]QGTFTSDYSKYLDEKACKEFVQWLLAQ (bridge 16-20; not fully specified) [triple agonist of SEQ ID NO: 31], for which the “In vitro activity (%) … vs GLP-1” value in the experiment with human GLP-1 receptor was 135%. In the experiment with human GCG receptor, the “In vitro activity (%) … vs Glucagon” value amounted to 2.2%. Moreover, the “In vitro activity (%) … vs GIP” value with human GIP receptor came to 2.4%.
For Y[Aib]QGTFTSDYSKYLDECRAKEFVQWLKNGGPSSGAPPPS (bridge 16-20) [triple agonist of SEQ ID NO: 24], in that order: 41.2%, 9.3% and below 0.1%.
As to H[Aib]QGTFTSDYSKYLDEKAAKEFVQWLLNTC (bridge 16-20; not fully specified) [triple agonist of SEQ ID NO: 29], the “In vitro activity (%) … vs GLP-1” value with human GLP-1 receptor was 38.5%. In addition, in the experiment with human GCG receptor, the “In vitro activity (%) … vs Glucagon” value was 6%. Moreover, the “In vitro activity (%) … vs GIP” value with human GIP receptor is below 0.1%.
For {Acetyl(2-(4-imidazolyl))}-GQGTFTSDLSIQYEEEAQQDFVEWLKDTGPSSGAPPPSHG (not fully specified; also: ring from underlined residues, positions not shown) [triple agonist of SEQ ID NO: 20], in that order: below 0.1%, below 0.1% and below 0.1%.
For Y[Aib]QGTFTSDYSKYLDECRAKEFVQWLLDHHPSSGQPPPS (bridge 16-20; not fully specified) [triple agonist of SEQ ID NO: 21], in that order: 17.8%, 267% and 22.7%.
For {Acetyl(2-(4-imidazolyl))}-GQGTFTSDYSIQLDEIAVRDFVEWLKNGGPSSGAPPPSHG (not fully specified; also: ring from underlined residues, positions not shown) [triple agonist of SEQ ID NO: 14], in that order: 28%, below 0.1% and below 0.1%.
As for Y[Aib]QGTFTSDYSKYLDECRAKEFVQWLLAQKGKKNDWKHNIT (bridge 16-20; not fully specified) [triple agonist of SEQ ID NO: 23], the “In vitro activity (%) … vs GLP-1” value with human GLP-1 receptor came out at 4.01%. Besides, in the experiment with human GCG receptor, the “In vitro activity (%) … vs Glucagon” value is 9.3%. Moreover, the “In vitro activity (%) … vs GIP” value with human GIP receptor was below 0.1%.
For Y[Aib]QGTFTSDYSKCLDEKRAKEFVQWLLDHHPSSGQPPPS (bridge 16-20; not fully specified) [triple agonist of SEQ ID NO: 22], in that order: 20.1%, 140% and 59.7%.
For the molecule {Acetyl(2-(4-imidazolyl))}-GQGTFTSDLSKQMDSEAQQLFIEWLKNGGPSSGAPPPSHG (not fully specified; also: ring from underlined residues, positions not shown) [triple agonist of SEQ ID NO: 16], the “In vitro activity (%) … vs GLP-1” value in the experiment with human GLP-1 receptor is 2.1%. The “In vitro activity (%) … vs Glucagon” value in the experiment with human GCG receptor was below 0.1%. In addition, the “In vitro activity (%) … vs GIP” value with human GIP receptor is below 0.1%.
H[Aib]QGTFTSDYSKYLDEKAQKEFVQWLLDTC (bridge 16-20; not fully specified) [triple agonist of SEQ ID NO: 30]: the “In vitro activity (%) … vs GLP-1” value in the experiment with human GLP-1 receptor was determined as 142%. The “In vitro activity (%) … vs Glucagon” value with human GCG receptor was 0.7%. The “In vitro activity (%) … vs GIP” value with human GIP receptor was 0.8%.
For {Acetyl(2-(4-imidazolyl))}-GQGTFTSDLSKQMDSERAREFIEWLKNTGPSSGAPPPSHG (not fully specified; also: ring from underlined residues, positions not shown) [triple agonist of SEQ ID NO: 18], in that order: below 0.1%, below 0.1% and below 0.1%.
For {Acetyl(2-(4-imidazolyl))}-GQGTFTSDLSIQYDSEHQRDFIEWLKDTGPSSGAPPPSHG (not fully specified; also: ring from underlined residues, positions not shown) [triple agonist of SEQ ID NO: 19], in that order: below 0.1%, below 0.1% and below 0.1%.
For H[Aib]QGTFTSDYSKYLDEKACKDFVQWLLDGGPSSGAPPPS (bridge 16-20; not fully specified) [triple agonist of SEQ ID NO: 32], in that order: 151%, 1.7% and 8.8%.
As for H[Aib]QGTFTSDCSKYLDERAAQDFVQWLLDGGPSSGAPPPS (not fully specified) [triple agonist of SEQ ID NO: 25], in the experiment with human GLP-1 receptor, the “In vitro activity (%) … vs GLP-1” value was determined as 82.6%. The “In vitro activity (%) … vs Glucagon” value in the experiment with human GCG receptor came to 0.1%. In the experiment with human GIP receptor, the “In vitro activity (%) … vs GIP” value is below 0.1%.
For H[Aib]QGTFTSDCSKYLDSRAAQDFVQWLLDGGPSSGAPPPS (not fully specified) [triple agonist of SEQ ID NO: 26], in that order: 64.5%, 0.2% and below 0.1%.
For {Acetyl(2-(4-imidazolyl))}-GQGTFTSDLSKQMDEERAREFIEWLLAQKPSSGAPPPSHG (not fully specified; also: ring from underlined residues, positions not shown) [triple agonist of SEQ ID NO: 17], in that order: 0.2%, below 0.1% and below 0.1%.
For H[Aib]QGTFTSDYSKYLDEKRAQEFVCWLLAQKGKKNDWKHNIT (not fully specified) [triple agonist of SEQ ID NO: 28], in that order: 17.2%, 1.6% and below 0.1%.
As for H[Aib]QGTFTSDVSSYLDGQAQKEFIAWLVKGC (not fully specified) [triple agonist of SEQ ID NO: 2], in the experiment with human GLP-1 receptor, the “In vitro activity (%) … vs GLP-1” value came out at 5.9%. Further, in the experiment with human GCG receptor, the “In vitro activity (%) … vs Glucagon” value is below 0.1%. Besides, in the experiment with human GIP receptor, the “In vitro activity (%) … vs GIP” value is below 0.1%.
With H[Aib]QGTFTSDYSKYLDERACQDFVQWLLDQGGPSSGAPPPS (not fully specified) [triple agonist of SEQ ID NO: 27], the “In vitro activity (%) … vs GLP-1” value in the experiment with human GLP-1 receptor came to 83.1%. Moreover, in the experiment with human GCG receptor, the “In vitro activity (%) … vs Glucagon” value came to 0.8%. Also, the “In vitro activity (%) … vs GIP” value in the experiment with human GIP receptor stood at 0.9%.

The record behind these values is US20230372448A1, “THERAPEUTIC USE OF LONG-ACTING CONJUGATE OF TRIPLE AGONIST ACTING ON ALL OF GLUCAGON, GLP-1 AND GIP RECEPTORS AGAINST MULTIPLE SCLEROSIS” (HANMI PHARM. CO. ,LTD., priority 2020, published 2023).
